Test results: US20220347265

Target: C3b (Complement Technology, Cat #A114), labeled with ANS (UniProt P01024)
Chain of UniProt P01024 (P01024 whole entry, looked up): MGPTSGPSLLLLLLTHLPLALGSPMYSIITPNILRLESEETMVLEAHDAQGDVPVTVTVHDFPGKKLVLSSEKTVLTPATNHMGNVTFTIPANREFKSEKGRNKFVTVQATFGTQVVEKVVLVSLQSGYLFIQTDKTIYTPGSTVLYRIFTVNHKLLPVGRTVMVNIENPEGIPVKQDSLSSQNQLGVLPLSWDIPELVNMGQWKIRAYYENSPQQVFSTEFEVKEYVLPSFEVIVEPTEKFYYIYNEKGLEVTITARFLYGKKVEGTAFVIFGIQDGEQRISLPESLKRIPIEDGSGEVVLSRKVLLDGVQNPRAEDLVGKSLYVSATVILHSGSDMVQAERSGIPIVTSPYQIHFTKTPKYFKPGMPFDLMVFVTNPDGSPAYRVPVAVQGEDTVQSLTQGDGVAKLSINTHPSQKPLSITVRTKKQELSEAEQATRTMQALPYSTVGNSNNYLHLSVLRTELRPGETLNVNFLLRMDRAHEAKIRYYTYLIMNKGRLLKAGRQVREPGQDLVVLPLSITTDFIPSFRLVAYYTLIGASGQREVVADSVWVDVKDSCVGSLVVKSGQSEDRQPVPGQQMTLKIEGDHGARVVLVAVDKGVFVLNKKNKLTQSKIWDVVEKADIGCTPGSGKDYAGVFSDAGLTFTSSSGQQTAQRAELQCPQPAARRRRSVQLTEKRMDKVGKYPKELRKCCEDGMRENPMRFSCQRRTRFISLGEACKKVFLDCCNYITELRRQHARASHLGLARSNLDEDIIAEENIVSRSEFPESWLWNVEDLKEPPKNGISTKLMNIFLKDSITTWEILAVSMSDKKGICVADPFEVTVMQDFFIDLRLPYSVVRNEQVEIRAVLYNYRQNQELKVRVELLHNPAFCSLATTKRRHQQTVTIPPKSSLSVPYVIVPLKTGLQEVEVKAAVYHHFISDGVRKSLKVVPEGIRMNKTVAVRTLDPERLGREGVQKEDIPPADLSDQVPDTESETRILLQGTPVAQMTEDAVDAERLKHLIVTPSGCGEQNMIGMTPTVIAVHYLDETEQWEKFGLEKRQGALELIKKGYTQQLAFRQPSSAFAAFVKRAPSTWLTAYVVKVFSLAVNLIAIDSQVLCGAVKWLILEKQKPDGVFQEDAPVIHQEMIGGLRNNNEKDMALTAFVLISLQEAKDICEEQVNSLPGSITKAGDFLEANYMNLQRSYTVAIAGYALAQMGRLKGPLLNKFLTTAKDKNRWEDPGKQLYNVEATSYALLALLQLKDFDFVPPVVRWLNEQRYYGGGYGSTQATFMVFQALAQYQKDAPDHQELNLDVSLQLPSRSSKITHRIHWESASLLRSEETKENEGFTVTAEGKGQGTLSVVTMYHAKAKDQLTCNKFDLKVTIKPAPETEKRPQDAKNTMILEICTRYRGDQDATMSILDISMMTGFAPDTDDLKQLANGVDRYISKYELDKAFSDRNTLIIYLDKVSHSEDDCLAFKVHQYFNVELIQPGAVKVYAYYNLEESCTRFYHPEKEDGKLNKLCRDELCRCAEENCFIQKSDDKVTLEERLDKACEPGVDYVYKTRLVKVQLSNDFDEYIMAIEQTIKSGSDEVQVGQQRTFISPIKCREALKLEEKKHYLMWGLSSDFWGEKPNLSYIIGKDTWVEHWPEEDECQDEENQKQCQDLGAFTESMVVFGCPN

| Substance | fluorescence cofactor assay: cleavage of ANS-labeled C3b to iC3b (change in RFUs over time), with cofactor CFH, MCP or CR1, against wild type CFI |
| --- | --- |
| A240G CFI protein | certain CFI mutations (G119R, A240G, and P553S) were associated with greatly reduced CFI protein function |
| A300T CFI protein | the A300T mutation appeared to have relatively little impact on CFI function |
| G119R CFI protein | certain CFI mutations (G119R, A240G, and P553S) were associated with greatly reduced CFI protein function |
| P553S CFI protein | certain CFI mutations (G119R, A240G, and P553S) were associated with greatly reduced CFI protein function |
